Reference: PMC11142274 (bioRxiv, 2024)

T1: Tom70-EGFP-CNPase-ALFAtag (Mus musculus (assumed))
T1 chain: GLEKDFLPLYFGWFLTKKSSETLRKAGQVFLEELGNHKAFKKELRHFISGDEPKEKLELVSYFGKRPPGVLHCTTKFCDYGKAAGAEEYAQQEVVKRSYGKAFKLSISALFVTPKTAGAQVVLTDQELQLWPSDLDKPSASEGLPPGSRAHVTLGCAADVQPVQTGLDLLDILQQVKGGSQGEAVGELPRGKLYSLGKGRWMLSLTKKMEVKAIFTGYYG


What was measured:
[1] = biological target: T2, mouse CNPase catalytic domain (mouse, UniProt P16330); assay: SEC-SAXS
[2] = biological target: T3, full-length mouse CNPase (Mus musculus, UniProt P16330); assay: enzyme inhibition kinetics
[3] = biological target: T3, full-length mouse CNPase; assay: DSF thermal shift
[4] = biological target: T2, mouse CNPase catalytic domain; assay: ITC
[5] = biological target: T1, Tom70-EGFP-CNPase-ALFAtag; assay: co-localisation with a target anchored to mitochondria
[6] = biological target: T2, mouse CNPase catalytic domain; assay: SEC-SAXS; remark: listed apart in the source
[7] = biological target: T3, full-length mouse CNPase; assay: nanoDSF thermal shift

T3 sequence (P16330 whole entry): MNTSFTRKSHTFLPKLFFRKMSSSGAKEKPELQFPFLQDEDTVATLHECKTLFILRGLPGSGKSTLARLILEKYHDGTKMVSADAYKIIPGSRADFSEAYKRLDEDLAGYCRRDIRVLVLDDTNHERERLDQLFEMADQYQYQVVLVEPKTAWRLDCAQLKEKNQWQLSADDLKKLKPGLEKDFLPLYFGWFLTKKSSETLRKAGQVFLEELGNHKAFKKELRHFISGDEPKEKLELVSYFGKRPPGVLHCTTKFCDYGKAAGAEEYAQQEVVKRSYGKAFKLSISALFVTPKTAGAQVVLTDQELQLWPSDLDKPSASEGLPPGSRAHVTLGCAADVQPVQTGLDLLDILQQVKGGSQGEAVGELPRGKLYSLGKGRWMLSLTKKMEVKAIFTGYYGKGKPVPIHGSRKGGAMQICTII

| stoichiometry N [1] | Ki [2] [nM] | Kd [4] [nM] | dH [4] [kcal/mol] | stoichiometry N [4] | binding result [5] | stoichiometry N [6] | Binder | ΔTm of CNPase [3] [°C] | ΔTm of CNPase [7] [°C] |
| --- | --- | --- | --- | --- | --- | --- | --- | --- | --- |
| 2 molecules of CNPase per 10E molecule | 0.604 ± 0.0507 | 9.8 | -12.1 | 0.804 |  |  | anti-CNPase nanobody NbCNP 10E (VHH) VHH: EVQLEESGGGLVQPGGSLRLSCAVSGITLDDFGIGWFRQAPGKEREGVACISPGYEHIYYADSAKGRFTISRDNAKNTVYLQMNNLKPWDTGVYYCAADNDLPDRLWGGSDWSDPSPYDYWGQGTQVTVSS | 4.2 |  |
|  |  |  |  |  | binds |  | iNbCNP 10E fused to mRuby3 (VHH) VHH: EVQLEESGGGLVQPGGSLRLSCAVSGITLDDFGIGWFRQAPGKEREGVACISPGYEHIYYADSAKGRFTISRDNAKNTVYLQMNNLKPWDTGVYYCAADNDLPDRLWGGSDWSDPSPYDYWGQGTQVTVSS |  |  |
|  |  | 13.4 | -18.1 | 0.836 |  |  | MaBP-10E (His6-maltose binding protein fusion of NbCNP 10E) (VHH) VHH: EVQLEESGGGLVQPGGSLRLSCAVSGITLDDFGIGWFRQAPGKEREGVACISPGYEHIYYADSAKGRFTISRDNAKNTVYLQMNNLKPWDTGVYYCAADNDLPDRLWGGSDWSDPSPYDYWGQGTQVTVSS |  |  |
|  |  | 83.3 | -14.2 | 0.863 |  | 1 | anti-CNPase nanobody NbCNP 7E (VHH) VHH: EVQLEESGGGWVHPGGSLRLSCAASGNVFGVNTMAWYRQAPGKQREQRELVASITDYGTTEYADSVKGRFTISGDNAKATVYLQMNSLKPEDTAVYYCNMDLTVMTATSSLYAYDYWGQGTQVTVSS | 2.1 |  |
|  |  | 16.6 | -7.07 | 0.914 |  | 1 | anti-CNPase nanobody NbCNP 8C (VHH) VHH: EVQLEESGGGLVQAGGSLTLSCAASGFTFDDYAMGWYRQAPGKERVGVSCISRTDGYTYYLDSVKGRFTISTDHAKHTVYLQMNNLKPDDTGLYYCAADADPEYGSRCPDPYYGMDYWGKGILVTVSS | 9.2 |  |
|  |  |  |  |  |  |  | anti-CNPase nanobody NbCNP 8D (VHH) VHH: EVQLEESGGGLVQPGGSLRLSCAASGFTFSSYVMSWVRQAPGKGLEWVSDINSGGSRTYYTDSVKGRFTISRDNAKNTLYLQMNSLKPEDTAVYYCARDSLLSTRYLHTSERGQGTQVTVSS | 18 | 17.7 |
|  |  |  |  |  | binds |  | iNbCNP 8D fused to mRuby3 (VHH) VHH: EVQLEESGGGLVQPGGSLRLSCAASGFTFSSYVMSWVRQAPGKGLEWVSDINSGGSRTYYTDSVKGRFTISRDNAKNTLYLQMNSLKPEDTAVYYCARDSLLSTRYLHTSERGQGTQVTVSS |  |  |
